{
  "source": "patent US20240317834A1",
  "about": "“COMPOSITIONS AND METHODS FOR NEUROLOGICAL DISEASES” (CODA BIOTHERAPEUTICS, INC., priority 2020, published 2024)",
  "molecules": {"B1": {"name": "CODA1140: engineered chimeric LGIC receptor, R101F, L131N, S172D in SEQ ID NO: 33 (protein)", "chain": "MRCSPGGVWLALAASLLHVSLQGEFQRKLYKELVKNYNPLERPVANDSQPLTVYFSLSLLQIMDVDEKNQVLTTNIWLQMSWTDHYLQWNVSEYPGVKTVFFPDGQIWKPDILLYNSADERFDATFHTNVNVNSSGHCQYLPPGIFKSSCPMDLKNFPMDVQTCKLKFGSWDYGGWSLDLQMQEADISGYIPNGEWDLVGIPGKRSERFYECCKEPYPDVTFTVTMRRRMGYYLIQMYIPSLLIVILSWISFWINMDAAPARVGLGITTVLTMTTQSSGSRASLPKVSYVKAIDIWMAVCLLFVFSALLEYAAVNFVSRQHKELLRFRRKRRHHKSPMLNLFQEDEAGEGRFNFSAYGMGPACLQAKDGISVKGANNSNTTNPPPAPSKSPEEMRKLFIQRAKKIDKISRIGFPMAFLIFNMFYWIIYKIVRREDVHNQ", "modifications": "synthetic sequence of chimeric LGIC"}},
  "format_in_all_cases": "cell-based",
  "key": {"[1]": {"tested_on": "Lenti-X 293T cells", "assay": "YFP fluorescence quenching anion reporter plate reader assay of engineered receptors stimulated with acetylcholine or a non-native ligand", "procedure,_shortened": "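Lenti-X 293T cells carrying a YFP anion reporter were transiently transfected with channel DNA and assayed the next day in HEPES-buffered ECS at pH 7.2. Ligand (acetylcholine or non-native ligand) was added in NaI-substituted ECS. Percent quench was the mean of the last 10 s relative to the 15 s pre-addition baseline.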"}, "[2]": {"tested_on": "rat hippocampal neurons", "assay": "Evoked rheobase shift in rat hippocampal neurons (current clamp)", "procedure": "(§1) For manual patch clamp experiments, Cells plated on coverslips were visualized at 10× and 40× on an inverted fluorescence microscope (Olympus). Recordings were made with an Axopatch 200B amplifier and Digidata 1550B (Molecular Devices) at RT using 3-6 MOhm glass patch electrodes (Sutter, BF150-86-10). Unless otherwise stated, recordings were made in extracellular solution (ECS) containing: 140 mM sodium chloride, 4 mM potassium chloride, 1 mM magnesium chloride, 2 mM calcium chloride, 10 mM HEPES, and 10 mM D-(+)-glucose (pH=7.3 with sodium hydroxide, osmolarity=305−315 mOsm). An 8-line reservoir (AutoMate Scientific) in combination with an 8-channel zero-dead-volume perfusion pencil (AutoMate Scientific) was used for perfusion. Data was acquired using pClamp software (Molecular Devices). Traces were either analyzed in Clampfit (Molecular Devices) or using custom Python code. Plotting and statistics were performed in GraphPad Prism.\nNo holding current was applied to the membrane for cells included in the final datasets. Data acquisition settings and analysis methods were the same as for the DRG rheobase experiments."}, "[3]": {"tested_on": "rat hippocampal neurons", "assay": "Spontaneous firing rate of rat hippocampal neurons (current clamp)", "procedure": "as §1, with “Plotting and statistics were performed in GraphPad Prism.” left out\nSpontaneous activity was recorded in gapfree mode, in the presence and absence of a compound. […] For both methods, minimum height, average height, maximum height were measured and frequency was calculated as the number of events in the epoch divided by the length of time of the epoch. For Clampfit, the resting membrane potential was measured at 3 points between events and averaged for each epoch. […] For both methods, membrane potential was corrected for the calculated liquid junction potential. […]"}},
  "data": [
    {"molecule": "B1", "values": [
      {"measurement": "YFP fluorescence quenching using CNL001", "setting": "[1]; 1 nM CNL001, first column", "value": 52.592, "unit": "%"},
      {"measurement": "YFP fluorescence quenching using CNL001", "setting": "[1]; 1 nM CNL001, second column", "value": 61.248, "unit": "%"},
      {"measurement": "YFP fluorescence quenching using CNL002", "setting": "[1]; 1 nM CNL002", "value": 0.337, "unit": "%"},
      {"measurement": "YFP fluorescence quenching using Varenicline", "setting": "[1]; 3 nM var, first column", "value": "−6.169"},
      {"measurement": "YFP fluorescence quenching using Varenicline", "setting": "[1]; 3 nM var, second column", "value": "−10.445"},
      {"measurement": "YFP fluorescence quenching using CNL001", "setting": "[1]; 10 nM CNL001, first column", "value": 71.678, "unit": "%"},
      {"measurement": "YFP fluorescence quenching using CNL001", "setting": "[1]; 10 nM CNL001, second column", "value": 71.881, "unit": "%"},
      {"measurement": "YFP fluorescence quenching using CNL002", "setting": "[1]; 10 nM CNL002", "value": 59.894, "unit": "%"},
      {"measurement": "YFP fluorescence quenching using Varenicline", "setting": "[1]; 30 nM var, first column", "value": "−9.679"},
      {"measurement": "YFP fluorescence quenching using Varenicline", "setting": "[1]; 30 nM var, second column", "value": "−10.878"},
      {"measurement": "YFP fluorescence quenching using CNL001", "setting": "[1]; 50 nM CNL001, first column", "value": 73.807, "unit": "%"},
      {"measurement": "YFP fluorescence quenching using CNL001", "setting": "[1]; 50 nM CNL001, second column", "value": 75.649, "unit": "%"},
      {"measurement": "YFP fluorescence quenching using CNL002", "setting": "[1]; 50 nM CNL002", "value": 76.501, "unit": "%"},
      {"measurement": "YFP fluorescence quenching using ABT-126", "setting": "[1]; 50 nM abt", "value": "−7.87", "unit": "%"},
      {"measurement": "YFP fluorescence quenching using CNL001", "setting": "[1]; 100 nM CNL001, first column", "value": 76, "unit": "%"},
      {"measurement": "YFP fluorescence quenching using CNL001", "setting": "[1]; 100 nM CNL001, second column", "value": 76.329, "unit": "%"},
      {"measurement": "YFP fluorescence quenching using CNL002", "setting": "[1]; 100 nM CNL002", "value": 79.03, "unit": "%"},
      {"measurement": "YFP fluorescence quenching using ABT-126", "setting": "[1]; 100 nM abt", "value": "−5.35", "unit": "%"},
      {"measurement": "YFP fluorescence quenching using ABT-126", "setting": "[1]; 300 nM abt", "value": "−3.67", "unit": "%"},
      {"measurement": "YFP fluorescence quenching using Varenicline", "setting": "[1]; 300 nM var, first column", "value": "−9.572"},
      {"measurement": "YFP fluorescence quenching using Varenicline", "setting": "[1]; 300 nM var, second column", "value": "−8.873"},
      {"measurement": "YFP fluorescence quenching using Varenicline", "setting": "[1]; 500 nM var, first column", "value": "−14.656"},
      {"measurement": "YFP fluorescence quenching using Varenicline", "setting": "[1]; 500 nM var, second column", "value": "−11.304"},
      {"measurement": "YFP fluorescence quenching using CNL001", "setting": "[1]; 1 uM CNL001, first column", "value": 76.168, "unit": "%"},
      {"measurement": "YFP fluorescence quenching using CNL001", "setting": "[1]; 1 uM CNL001, second column", "value": 74.076, "unit": "%"},
      {"measurement": "YFP fluorescence quenching using CNL002", "setting": "[1]; 1 uM CNL002", "value": 82.85, "unit": "%"},
      {"measurement": "YFP fluorescence quenching using ABT-126", "setting": "[1]; 1 uM abt", "value": 3.64, "unit": "%"},
      {"measurement": "YFP fluorescence quenching using Varenicline", "setting": "[1]; 1 uM var, first column", "value": "−13.996"},
      {"measurement": "YFP fluorescence quenching using Varenicline", "setting": "[1]; 1 uM var, second column", "value": "−16.128"},
      {"measurement": "YFP fluorescence quenching using ABT-126", "setting": "[1]; 10 uM abt", "value": 5.91, "unit": "%"},
      {"measurement": "percent quench of YFP fluorescence, 10 uM ach", "setting": "[1]; acetylcholine 10 uM", "value": "−20.07", "unit": "%"},
      {"measurement": "percent quench of YFP fluorescence, 30 uM ach", "setting": "[1]; acetylcholine 30 uM", "value": "−16.92", "unit": "%"},
      {"measurement": "percent quench of YFP fluorescence, 100 uM ach", "setting": "[1]; acetylcholine 100 uM", "value": "−25.8", "unit": "%"},
      {"measurement": "percent quench of YFP fluorescence, 300 uM ach", "setting": "[1]; acetylcholine 300 uM", "value": "−11.21", "unit": "%"},
      {"measurement": "percent quench of YFP fluorescence, 1 mM ach", "setting": "[1]; acetylcholine 1 mM", "value": 9.02, "unit": "%"},
      {"measurement": "percent quench of YFP fluorescence, 3 mM ach", "setting": "[1]; acetylcholine 3 mM", "value": 45, "unit": "%"},
      {"measurement": "Rheobase Shift Evoked; Rat Hippocampal Neurons, +CNL002 @ EC90", "setting": "[2]; +CNL002 @ EC90", "value": "296.9 ± 72.65", "unit": "pA"},
      {"measurement": "Rheobase Shift Evoked; Rat Hippocampal Neurons, Baseline", "setting": "[2]; Baseline, no ligand", "value": "40.63 ± 10.50", "unit": "pA"},
      {"measurement": "Firing Rate Spontaneous; Rat Hippocampal Neurons, +CNL002 @ EC90", "setting": "[3]; +CNL002 @ EC90", "value": "0.71 ± 0.29", "unit": "Hz"},
      {"measurement": "Firing Rate Spontaneous; Rat Hippocampal Neurons, Baseline", "setting": "[3]; Baseline, no ligand", "value": "3.29 ± 0.75", "unit": "Hz"}
    ]}
  ]
}
